Test results as given in patent US20190248900A1.

Columns and labels:
ITGA6-Fc [1] = target: T1, ITGA6-Fc; experiment: ELISA, 1 ug/ml
T1 sequence (P23229 whole entry, species assumed, looked up): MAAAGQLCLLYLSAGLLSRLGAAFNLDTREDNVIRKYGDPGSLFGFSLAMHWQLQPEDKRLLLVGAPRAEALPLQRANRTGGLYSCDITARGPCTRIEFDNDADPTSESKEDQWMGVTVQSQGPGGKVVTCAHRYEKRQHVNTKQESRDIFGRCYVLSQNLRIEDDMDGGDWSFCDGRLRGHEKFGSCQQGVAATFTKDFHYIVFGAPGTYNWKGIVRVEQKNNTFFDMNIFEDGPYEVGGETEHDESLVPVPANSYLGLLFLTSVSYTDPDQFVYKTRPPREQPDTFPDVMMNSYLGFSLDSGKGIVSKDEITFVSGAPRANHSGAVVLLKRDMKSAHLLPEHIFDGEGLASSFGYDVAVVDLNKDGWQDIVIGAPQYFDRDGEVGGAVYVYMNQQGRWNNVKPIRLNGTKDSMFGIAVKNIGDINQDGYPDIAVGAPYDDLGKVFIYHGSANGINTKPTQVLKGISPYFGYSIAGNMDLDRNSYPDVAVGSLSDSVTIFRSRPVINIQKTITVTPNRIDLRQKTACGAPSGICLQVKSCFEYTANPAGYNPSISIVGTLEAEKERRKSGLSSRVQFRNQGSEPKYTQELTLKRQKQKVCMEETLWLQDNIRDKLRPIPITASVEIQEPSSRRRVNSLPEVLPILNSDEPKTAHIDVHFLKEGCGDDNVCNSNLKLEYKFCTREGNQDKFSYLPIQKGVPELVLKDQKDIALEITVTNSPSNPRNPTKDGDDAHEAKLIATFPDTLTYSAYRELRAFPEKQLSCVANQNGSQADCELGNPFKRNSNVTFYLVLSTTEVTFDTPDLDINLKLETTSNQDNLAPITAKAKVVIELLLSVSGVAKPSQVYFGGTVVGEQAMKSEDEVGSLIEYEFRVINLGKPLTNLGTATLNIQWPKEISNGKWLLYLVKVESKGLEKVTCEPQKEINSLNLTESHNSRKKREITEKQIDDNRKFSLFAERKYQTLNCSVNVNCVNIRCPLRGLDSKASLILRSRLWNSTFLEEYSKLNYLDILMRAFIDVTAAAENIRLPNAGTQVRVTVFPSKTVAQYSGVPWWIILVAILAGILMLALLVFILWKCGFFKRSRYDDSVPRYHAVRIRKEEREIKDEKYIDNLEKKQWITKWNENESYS

ITGA6-Fc [2] = target: T1, ITGA6-Fc; experiment: ELISA (control row)
[3] = target: human PD-1 (NM_005018.2) over-expressed on cells (human) (UniProt Q15116); experiment: flow cytometry, 18 nM, panel 49A2
[4] = target: human PD-1 (NM_005018.2) over-expressed on cells (human) (UniProt Q15116); experiment: flow cytometry, 18 nM, panel 45D6

Chain of human PD-1 (NM_005018.2) over-expressed on cells (human) (Q15116 25-288): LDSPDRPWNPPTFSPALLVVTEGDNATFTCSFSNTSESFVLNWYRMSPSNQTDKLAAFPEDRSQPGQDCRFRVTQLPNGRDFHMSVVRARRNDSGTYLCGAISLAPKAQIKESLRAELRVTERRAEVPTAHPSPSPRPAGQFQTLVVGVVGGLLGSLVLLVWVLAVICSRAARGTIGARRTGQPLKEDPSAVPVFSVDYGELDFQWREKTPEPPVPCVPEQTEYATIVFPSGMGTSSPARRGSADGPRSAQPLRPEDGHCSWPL
Chain of Pembrolizumab (antibody) (VH): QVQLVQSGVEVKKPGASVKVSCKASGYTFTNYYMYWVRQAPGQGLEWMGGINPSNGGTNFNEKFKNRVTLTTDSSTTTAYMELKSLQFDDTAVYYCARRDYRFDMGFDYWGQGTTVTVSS
Chain of Pembrolizumab (antibody) (VL): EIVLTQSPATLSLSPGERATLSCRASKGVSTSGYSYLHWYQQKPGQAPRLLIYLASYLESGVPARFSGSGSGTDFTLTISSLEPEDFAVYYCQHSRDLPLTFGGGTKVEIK

| OD490 (ITGA6-Fc [1]) | OD490 (ITGA6-Fc [2]) | Geometric Mean [3] | Geometric Mean [4] | Substance |
| --- | --- | --- | --- | --- |
| 0.1 | 0.1 | – | – | Pembrolizumab (antibody) |
| 0.3 | 0.3 | – | – | Nivolumab (antibody) |
| – | – | 50 | 50 | IgG (antibody) |
